Publication PMC7641752, “A hand-off of DNA between archaeal polymerases allows high-fidelity replication to resume at a discrete intermediate three bases past 8-oxoguanine”

B1: p22-FAM/t52Und (-1, undamaged) (dsDNA)
DNA 1: GCGAGGCGAGCGCGAGCGATAC
DNA 2: CGTCCAACATGAAGCTTGCACTCGATCGCGGTATCGCTCGCGCTCGCCTCGC
B2: p22-FAM/t528 (-1, 8-oxoG) (dsDNA)
DNA 1: GCGAGGCGAGCGCGAGCGATAC
DNA 2: B1 DNA 2
modifications: 8-oxoguanine at position 30 from 5' of strand 2 (23 from 3' end), written as G
B3: p26-FAM/t528 (+3, 8-oxoG) (dsDNA)
DNA 1: GCGAGGCGAGCGCGAGCGATACCGCG
DNA 2: B1 DNA 2
modifications: 8-oxoguanine at position 30 from 5' of strand 2 (23 from 3' end), written as G
B4: p26-FAM/t52Und (+3, undamaged) (dsDNA)
DNA 1: GCGAGGCGAGCGCGAGCGATACCGCG
DNA 2: B1 DNA 2
B5: PolB1 (enzyme)
chain: MTKQLTLFDIPSSKPAKSEQNTQQSQQSAPVEEKKVVRREWLEEAQENKIYFLLQVDYDGKKGKAVCKLFDKETQKIYALYDNTGHKPYFLVDLEPDKVGKIPKIVRDPSFDHIETVSKIDPYTWNKFKLTKIVVRDPLAVRRLRNDVPKAYEAHIKYFNNYMYDIGLIPGMPYVVKNGKLESVYLSLDEKDVEEIKKAFADSDEMTRQMAVDWLPIFETEIPKIKRVAIDIEVYTPVKGRIPDSQKAEFPIISIALAGSDGLKKVLVLNRNDVNEGSVKLDGISVERFNTEYELLGRFFDILLEYPIVLTFNGDDFDLPYIYFRALKLGYFPEEIPIDVAGKDEAKYLAGLHIDLYKFFFNKAVRNYAFEGKYNEYNLDAVAKALLGTSKVKVDTLISFLDVEKLIEYNFRDAEITLQLTTFNNDLTMKLIVLFSRISRLGIEELTRTEISTWVKNLYYWEHRKRNWLIPLKEEILAKSSNIRTSALIKGKGYKGAVVIDPPAGIFFNITVLDFASLYPSIIRTWNLSYETVDIQQCKKPYEVKDETGEVLHIVCMDRPGITAVITGLLRDFRVKIYKKKAKNPNNSEEQKLLYDVVQRAMKVFINATYGVFGAETFPLYAPAVAESVTALGRYVITSTVKKAREEGLTVLYGDTDSLFLLNPPKNSLENIIKWVKTTFNLDLEVDKTYKFVAFSGLKKNYFGVYQDGKVDIKGMLVKKRNTPEFVKKVFNEVKELMISINSPNDVKEIKRKIVDVVKGSYEKLKNKGYNLDELAFKVMLSKPLDAYKKNTPQHVKAALQLRPFGVNVLPRDIIYYVKVRSKDGVKPVQLAKVTEIDAEKYLEALRSTFEQILRAFGVSWDEIAATMSIDSFFSYPSKGNS
B6: PolY (enzyme)
chain: MIVLFVDFDYFYAQVEEVLNPSLKGKPVVVCVFSGRFEDSGAVATANYEARKFGVKAGIPIVEAKKILPNAVYLPMRKEVYQQVSSRIMNLLREYSEKIEIASIDEAYLDISDKVRDYREAYNLGLEIKNKILEKEKITVTVGISKNKVFAKIAADMAKPNGIKVIDDEEVKRLIRELDIADVPGIGNITAEKLKKLGINKLVDTLSIEFDKLKGMIGEAKAKYLISLARDEYNEPIRTRVRKSIGRIVTMKRNSRNLEEIKPYLFRAIEESYYKLDKRIPKAIHVVAVTEDLDIVSRGRTFPHGISKETAYSESVKLLQKILEEDERKIRRIGVRFSKFIEAIGLDKFFDT

How the values were obtained:
[1] = target: T1, PolY (Y-family TLS DNA polymerase) (Saccharolobus/Sulfolobus solfataricus …, UniProt Q97W02 1-352); assay: fluorescence anisotropy; Fluorescence anisotropy, 4 nM DNA, room temperature, 90 s incubation, Hill fit, mean of three titrations; binding buffer not stated in the material (as in ref 38); details: protein: recombinant, label: 5'-FAM on primer (strand 1), primer-template
T1 sequence: B6 chain

[2] = target: T2, PCNA123 (Saccharolobus solfataricus) (UniProt P57766)
T2 sequence 1: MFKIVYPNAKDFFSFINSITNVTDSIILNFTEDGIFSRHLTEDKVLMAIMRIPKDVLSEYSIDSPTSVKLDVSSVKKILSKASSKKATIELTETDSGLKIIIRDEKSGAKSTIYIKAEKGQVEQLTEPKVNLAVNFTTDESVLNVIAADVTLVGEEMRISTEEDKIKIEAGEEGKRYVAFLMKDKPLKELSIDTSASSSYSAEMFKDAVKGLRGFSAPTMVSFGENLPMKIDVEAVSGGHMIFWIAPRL
T2 sequence 2: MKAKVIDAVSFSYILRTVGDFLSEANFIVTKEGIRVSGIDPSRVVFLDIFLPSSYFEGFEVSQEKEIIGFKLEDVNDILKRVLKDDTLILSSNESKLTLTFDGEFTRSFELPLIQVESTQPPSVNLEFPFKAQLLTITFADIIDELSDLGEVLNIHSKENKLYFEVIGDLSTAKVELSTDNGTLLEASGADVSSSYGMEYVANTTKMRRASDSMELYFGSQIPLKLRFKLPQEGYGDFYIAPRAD
T2 sequence 3: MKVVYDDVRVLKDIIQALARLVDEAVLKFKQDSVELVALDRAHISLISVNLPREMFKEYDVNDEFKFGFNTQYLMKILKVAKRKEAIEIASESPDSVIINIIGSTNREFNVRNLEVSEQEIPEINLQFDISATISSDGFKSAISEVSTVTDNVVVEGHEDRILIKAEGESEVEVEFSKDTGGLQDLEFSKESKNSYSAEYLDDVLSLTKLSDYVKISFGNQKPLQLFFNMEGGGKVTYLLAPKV

[3] = target: T2, PCNA123 (Saccharolobus solfataricus); remark: listed apart in the source
[4] = 5' overhang 30 nt on template (strand 2)
[5] = 5' overhang 26 nt on template (strand 2)

| Binder | Kd [1, 4] [nM] | Kd [1, 5] [nM] | further results |
| --- | --- | --- | --- |
| B1 | 16.1 ± 0.4 | – | – |
| B2 | 25.9 ± 8.2 | – | – |
| B3 | – | 13 ± 0.4 | – |
| B4 | – | 31.2 ± 3.5 | – |
| B5 | – | – | observed rate constant (kobs) of extension from primer p26 (+3), Scheme vi: PolB1 added at initiation to DNA pre-loaded with PCNA123 and RFC; rapid quench, 40°C [2]: 2.1 s⁻¹ |
| B6 | – | – | observed rate constant (kobs) of 8-oxoG lesion bypass from primer p22 (-1), Scheme ii: PolY added at initiation to DNA pre-loaded with PCNA123 and RFC; rapid quench, 40°C [3]: 0.22 s⁻¹ |
